# From patent publication US20260001928A1 (CORTERIA PHARMACEUTICALS, priority 2022, published 2026)
# *1 amine or outer side, *2 acyl side, *3 side chain or, on linkers, in order; H or OH if unused. Where no end group is shown, it is not given here. Side-chain parts run from the residue outwards. [ ]: non-standard residue; d: D form. The star is where a group is joined. C20 diacid = O=C(O)CCCCCCCCCCCCCCCCCCC(=O)*; C16 diacid = O=C(O)CCCCCCCCCCCCCCC(=O)*; γGlu = O=C(O)[C@H](CCC(=O)[*:2])N[*:1]; NMeI = CC[C@H](C)[C@H](NC)C(=O)O; Aib = CC(C)(N)C(=O)O
# T1: CRF1R receptor (UniProt P34998 24-415, limits assumed)
# T1 sequence (looked up): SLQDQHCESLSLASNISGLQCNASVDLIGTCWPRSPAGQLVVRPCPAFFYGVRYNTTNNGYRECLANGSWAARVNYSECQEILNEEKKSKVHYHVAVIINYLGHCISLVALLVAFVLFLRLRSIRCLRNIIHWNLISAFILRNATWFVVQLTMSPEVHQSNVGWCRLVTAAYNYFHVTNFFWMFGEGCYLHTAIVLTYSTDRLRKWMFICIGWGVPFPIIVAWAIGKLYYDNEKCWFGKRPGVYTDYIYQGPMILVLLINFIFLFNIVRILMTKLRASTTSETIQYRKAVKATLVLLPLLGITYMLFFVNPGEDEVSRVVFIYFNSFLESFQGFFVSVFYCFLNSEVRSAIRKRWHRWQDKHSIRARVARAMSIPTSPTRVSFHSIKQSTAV
# What was measured:
# [1] = molecular target: human corticotropin-releasing factor 2a (CRF2a receptor) (human), Q13324; assay: cell-based or functional assay
# CRF1R receptor = molecular target: T1, CRF1R receptor; assay: cell-based or functional assay
# Sequence of human corticotropin-releasing factor 2a (CRF2a receptor) (human), Q13324 (Q13324 20-411): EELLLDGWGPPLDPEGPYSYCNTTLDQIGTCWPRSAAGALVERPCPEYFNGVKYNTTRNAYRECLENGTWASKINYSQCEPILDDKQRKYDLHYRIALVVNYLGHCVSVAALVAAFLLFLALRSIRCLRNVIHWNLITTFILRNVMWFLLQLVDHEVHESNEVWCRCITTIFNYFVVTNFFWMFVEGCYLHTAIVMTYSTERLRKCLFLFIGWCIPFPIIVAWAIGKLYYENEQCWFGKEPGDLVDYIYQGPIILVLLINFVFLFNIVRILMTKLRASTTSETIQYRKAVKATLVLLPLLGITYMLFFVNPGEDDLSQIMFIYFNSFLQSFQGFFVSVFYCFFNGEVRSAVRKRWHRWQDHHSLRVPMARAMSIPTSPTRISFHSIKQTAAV
EC50 [nM] (cAMP) [1],EC50 (CRF1R receptor),Emax (% I) (CRF1R receptor),Binder
0.05 nM,80.3 nM,61%,[NMeI]VLSLD[dV]PIKLK([γGlu-C20 diacid])KILLEQEAQKKQREQAETN[Aib]QILAQV-NH2 (N-terminus assumed; SMILES CC[C@H](C)[C@H](NC)C(=O)N[C@H](C(=O)N[C@@H](CC(C)C)C(=O)N[C@@H](CO)C(=O)N[C@@H](CC(C)C)C(=O)N[C@@H](CC(=O)O)C(=O)N[C@@H](C(=O)N1CCC[C@H]1C(=O)N[C@H](C(=O)N[C@@H](CCCCN)C(=O)N[C@@H](CC(C)C)C(=O)N[C@@H](CCCCNC(=O)CC[C@H](NC(=O)CCCCCCCCCCCCCCCCCCC(=O)O)C(=O)O)C(=O)N[C@@H](CCCCN)C(=O)N[C@H](C(=O)N[C@@H](CC(C)C)C(=O)N[C@@H](CC(C)C)C(=O)N[C@@H](CCC(=O)O)C(=O)N[C@@H](CCC(N)=O)C(=O)N[C@@H](CCC(=O)O)C(=O)N[C@@H](C)C(=O)N[C@@H](CCC(N)=O)C(=O)N[C@@H](CCCCN)C(=O)N[C@@H](CCCCN)C(=O)N[C@@H](CCC(N)=O)C(=O)N[C@@H](CCCNC(=N)N)C(=O)N[C@@H](CCC(=O)O)C(=O)N[C@@H](CCC(N)=O)C(=O)N[C@@H](C)C(=O)N[C@@H](CCC(=O)O)C(=O)N[C@H](C(=O)N[C@@H](CC(N)=O)C(=O)NC(C)(C)C(=O)N[C@@H](CCC(N)=O)C(=O)N[C@H](C(=O)N[C@@H](CC(C)C)C(=O)N[C@@H](C)C(=O)N[C@@H](CCC(N)=O)C(=O)N[C@H](C(N)=O)C(C)C)[C@@H](C)CC)[C@@H](C)O)[C@@H](C)CC)[C@@H](C)CC)C(C)C)C(C)C) [SEQ ID NO 216]
0.12 nM,,34%,[NMeI]VLSLD[dV]PIKLK([γGlu-C20 diacid])KILLEQEKQKKQREQAETN[Aib]QILAQV-NH2 (N-terminus assumed; SMILES CC[C@H](C)[C@H](NC)C(=O)N[C@H](C(=O)N[C@@H](CC(C)C)C(=O)N[C@@H](CO)C(=O)N[C@@H](CC(C)C)C(=O)N[C@@H](CC(=O)O)C(=O)N[C@@H](C(=O)N1CCC[C@H]1C(=O)N[C@H](C(=O)N[C@@H](CCCCN)C(=O)N[C@@H](CC(C)C)C(=O)N[C@@H](CCCCNC(=O)CC[C@H](NC(=O)CCCCCCCCCCCCCCCCCCC(=O)O)C(=O)O)C(=O)N[C@@H](CCCCN)C(=O)N[C@H](C(=O)N[C@@H](CC(C)C)C(=O)N[C@@H](CC(C)C)C(=O)N[C@@H](CCC(=O)O)C(=O)N[C@@H](CCC(N)=O)C(=O)N[C@@H](CCC(=O)O)C(=O)N[C@@H](CCCCN)C(=O)N[C@@H](CCC(N)=O)C(=O)N[C@@H](CCCCN)C(=O)N[C@@H](CCCCN)C(=O)N[C@@H](CCC(N)=O)C(=O)N[C@@H](CCCNC(=N)N)C(=O)N[C@@H](CCC(=O)O)C(=O)N[C@@H](CCC(N)=O)C(=O)N[C@@H](C)C(=O)N[C@@H](CCC(=O)O)C(=O)N[C@H](C(=O)N[C@@H](CC(N)=O)C(=O)NC(C)(C)C(=O)N[C@@H](CCC(N)=O)C(=O)N[C@H](C(=O)N[C@@H](CC(C)C)C(=O)N[C@@H](C)C(=O)N[C@@H](CCC(N)=O)C(=O)N[C@H](C(N)=O)C(C)C)[C@@H](C)CC)[C@@H](C)O)[C@@H](C)CC)[C@@H](C)CC)C(C)C)C(C)C) [SEQ ID NO 214]
0.12 nM,,19%,[NMeI]VLSLD[dV]PIKLK([γGlu-C20 diacid])KILLEQEKQK[Aib]QREQAETN[Aib]QILAQV-NH2 (N-terminus assumed; SMILES CC[C@H](C)[C@H](NC)C(=O)N[C@H](C(=O)N[C@@H](CC(C)C)C(=O)N[C@@H](CO)C(=O)N[C@@H](CC(C)C)C(=O)N[C@@H](CC(=O)O)C(=O)N[C@@H](C(=O)N1CCC[C@H]1C(=O)N[C@H](C(=O)N[C@@H](CCCCN)C(=O)N[C@@H](CC(C)C)C(=O)N[C@@H](CCCCNC(=O)CC[C@H](NC(=O)CCCCCCCCCCCCCCCCCCC(=O)O)C(=O)O)C(=O)N[C@@H](CCCCN)C(=O)N[C@H](C(=O)N[C@@H](CC(C)C)C(=O)N[C@@H](CC(C)C)C(=O)N[C@@H](CCC(=O)O)C(=O)N[C@@H](CCC(N)=O)C(=O)N[C@@H](CCC(=O)O)C(=O)N[C@@H](CCCCN)C(=O)N[C@@H](CCC(N)=O)C(=O)N[C@@H](CCCCN)C(=O)NC(C)(C)C(=O)N[C@@H](CCC(N)=O)C(=O)N[C@@H](CCCNC(=N)N)C(=O)N[C@@H](CCC(=O)O)C(=O)N[C@@H](CCC(N)=O)C(=O)N[C@@H](C)C(=O)N[C@@H](CCC(=O)O)C(=O)N[C@H](C(=O)N[C@@H](CC(N)=O)C(=O)NC(C)(C)C(=O)N[C@@H](CCC(N)=O)C(=O)N[C@H](C(=O)N[C@@H](CC(C)C)C(=O)N[C@@H](C)C(=O)N[C@@H](CCC(N)=O)C(=O)N[C@H](C(N)=O)C(C)C)[C@@H](C)CC)[C@@H](C)O)[C@@H](C)CC)[C@@H](C)CC)C(C)C)C(C)C) [SEQ ID NO 215]

# More lines, now with the values behind:
Binder,EC50 [nM] (cAMP) [1],EC50 (CRF1R receptor),Emax (% I) (CRF1R receptor)
Ac-IVLSLD[dV]PIKLK([γGlu-C20 diacid])KILLEQEAQKKQREQAETN[Aib]QILAQV-NH2 (SMILES CC[C@H](C)[C@H](NC(C)=O)C(=O)N[C@H](C(=O)N[C@@H](CC(C)C)C(=O)N[C@@H](CO)C(=O)N[C@@H](CC(C)C)C(=O)N[C@@H](CC(=O)O)C(=O)N[C@@H](C(=O)N1CCC[C@H]1C(=O)N[C@H](C(=O)N[C@@H](CCCCN)C(=O)N[C@@H](CC(C)C)C(=O)N[C@@H](CCCCNC(=O)CC[C@H](NC(=O)CCCCCCCCCCCCCCCCCCC(=O)O)C(=O)O)C(=O)N[C@@H](CCCCN)C(=O)N[C@H](C(=O)N[C@@H](CC(C)C)C(=O)N[C@@H](CC(C)C)C(=O)N[C@@H](CCC(=O)O)C(=O)N[C@@H](CCC(N)=O)C(=O)N[C@@H](CCC(=O)O)C(=O)N[C@@H](C)C(=O)N[C@@H](CCC(N)=O)C(=O)N[C@@H](CCCCN)C(=O)N[C@@H](CCCCN)C(=O)N[C@@H](CCC(N)=O)C(=O)N[C@@H](CCCNC(=N)N)C(=O)N[C@@H](CCC(=O)O)C(=O)N[C@@H](CCC(N)=O)C(=O)N[C@@H](C)C(=O)N[C@@H](CCC(=O)O)C(=O)N[C@H](C(=O)N[C@@H](CC(N)=O)C(=O)NC(C)(C)C(=O)N[C@@H](CCC(N)=O)C(=O)N[C@H](C(=O)N[C@@H](CC(C)C)C(=O)N[C@@H](C)C(=O)N[C@@H](CCC(N)=O)C(=O)N[C@H](C(N)=O)C(C)C)[C@@H](C)CC)[C@@H](C)O)[C@@H](C)CC)[C@@H](C)CC)C(C)C)C(C)C) [SEQ ID NO 211],0.15 nM,39.9 nM,73%
Ac-IVLSLD[dV]PIKLK([γGlu-C20 diacid])KILLEQEKQKAQREQAETN[Aib]QILAQV-NH2 (SMILES CC[C@H](C)[C@H](NC(C)=O)C(=O)N[C@H](C(=O)N[C@@H](CC(C)C)C(=O)N[C@@H](CO)C(=O)N[C@@H](CC(C)C)C(=O)N[C@@H](CC(=O)O)C(=O)N[C@@H](C(=O)N1CCC[C@H]1C(=O)N[C@H](C(=O)N[C@@H](CCCCN)C(=O)N[C@@H](CC(C)C)C(=O)N[C@@H](CCCCNC(=O)CC[C@H](NC(=O)CCCCCCCCCCCCCCCCCCC(=O)O)C(=O)O)C(=O)N[C@@H](CCCCN)C(=O)N[C@H](C(=O)N[C@@H](CC(C)C)C(=O)N[C@@H](CC(C)C)C(=O)N[C@@H](CCC(=O)O)C(=O)N[C@@H](CCC(N)=O)C(=O)N[C@@H](CCC(=O)O)C(=O)N[C@@H](CCCCN)C(=O)N[C@@H](CCC(N)=O)C(=O)N[C@@H](CCCCN)C(=O)N[C@@H](C)C(=O)N[C@@H](CCC(N)=O)C(=O)N[C@@H](CCCNC(=N)N)C(=O)N[C@@H](CCC(=O)O)C(=O)N[C@@H](CCC(N)=O)C(=O)N[C@@H](C)C(=O)N[C@@H](CCC(=O)O)C(=O)N[C@H](C(=O)N[C@@H](CC(N)=O)C(=O)NC(C)(C)C(=O)N[C@@H](CCC(N)=O)C(=O)N[C@H](C(=O)N[C@@H](CC(C)C)C(=O)N[C@@H](C)C(=O)N[C@@H](CCC(N)=O)C(=O)N[C@H](C(N)=O)C(C)C)[C@@H](C)CC)[C@@H](C)O)[C@@H](C)CC)[C@@H](C)CC)C(C)C)C(C)C) [SEQ ID NO 212],0.11 nM,229 nM,41%
IVLSLD[dV]PIKLK([γGlu-C16 diacid])QILLKQERQKKQREQAEKN[Aib]QILEQV-NH2 [SEQ ID NO 10],0.17 nM,> 250 nM,26%
Ac-IVLSLD[dV]PIKLK([γGlu-C20 diacid])KILLEQEKQKEQREQAETN[Aib]QILAQV-NH2 (SMILES CC[C@H](C)[C@H](NC(C)=O)C(=O)N[C@H](C(=O)N[C@@H](CC(C)C)C(=O)N[C@@H](CO)C(=O)N[C@@H](CC(C)C)C(=O)N[C@@H](CC(=O)O)C(=O)N[C@@H](C(=O)N1CCC[C@H]1C(=O)N[C@H](C(=O)N[C@@H](CCCCN)C(=O)N[C@@H](CC(C)C)C(=O)N[C@@H](CCCCNC(=O)CC[C@H](NC(=O)CCCCCCCCCCCCCCCCCCC(=O)O)C(=O)O)C(=O)N[C@@H](CCCCN)C(=O)N[C@H](C(=O)N[C@@H](CC(C)C)C(=O)N[C@@H](CC(C)C)C(=O)N[C@@H](CCC(=O)O)C(=O)N[C@@H](CCC(N)=O)C(=O)N[C@@H](CCC(=O)O)C(=O)N[C@@H](CCCCN)C(=O)N[C@@H](CCC(N)=O)C(=O)N[C@@H](CCCCN)C(=O)N[C@@H](CCC(=O)O)C(=O)N[C@@H](CCC(N)=O)C(=O)N[C@@H](CCCNC(=N)N)C(=O)N[C@@H](CCC(=O)O)C(=O)N[C@@H](CCC(N)=O)C(=O)N[C@@H](C)C(=O)N[C@@H](CCC(=O)O)C(=O)N[C@H](C(=O)N[C@@H](CC(N)=O)C(=O)NC(C)(C)C(=O)N[C@@H](CCC(N)=O)C(=O)N[C@H](C(=O)N[C@@H](CC(C)C)C(=O)N[C@@H](C)C(=O)N[C@@H](CCC(N)=O)C(=O)N[C@H](C(N)=O)C(C)C)[C@@H](C)CC)[C@@H](C)O)[C@@H](C)CC)[C@@H](C)CC)C(C)C)C(C)C) [SEQ ID NO 213],0.22 nM,,27%
